The subject of this data set is Escherichia coli TOP10. As to the kind of experiment: shrunken log2 fold change of peptide-encoding DNA abundance (4.5 h post-induction vs induction); higher = less antimicrobial activity (less host growth inhibition). To be noted: time post-induction: 4.5 h; library: site-saturation at positions 5, 18, 19, 20.
On to RRIRQRPPRLPRPRPRPPPQPRP, for which the “shrunken log2 fold change” value amounted to 0.712. As for RRIRERPPRLPRPRPRPKCTPRP, the figure is -0.882; as for RRIRMRPPRLPRPRPRPDCDPRP, 0.0709. Consider RRIRDRPPRLPRPRPRPIGHPRP, for which the “shrunken log2 fold change” value was found to be 0.012. Then RRIRWRPPRLPRPRPRPPTFPRP, with -0.0697. As to RRIRMRPPRLPRPRPRPLQRPRP, the “shrunken log2 fold change” value was 0.0735.

For RRIRGRPPRLPRPRPRPDHVPRP, the “shrunken log2 fold change” value came out at 0.0598. Turning to RRIRTRPPRLPRPRPRPHNAPRP, the “shrunken log2 fold change” value is -0.391. Then RRIRTRPPRLPRPRPRPSKRPRP, with -0.325; and RRIRDRPPRLPRPRPRPSLEPRP, with 0.245; and RRIRCRPPRLPRPRPRPPEQPRP, with 2.18. In the case of RRIRTRPPRLPRPRPRPRFMPRP, the “shrunken log2 fold change” value is -0.265. Then RRIRIRPPRLPRPRPRPSFDPRP, with -0.442; and RRIRRRPPRLPRPRPRPYIWPRP, with -0.335.

Turning to RRIRIRPPRLPRPRPRPNYVPRP, the “shrunken log2 fold change” value is -0.115.

On to RRIRARPPRLPRPRPRPINSPRP, for which the “shrunken log2 fold change” value is -0.213. For the sequence RRIRIRPPRLPRPRPRPGCFPRP, the “shrunken log2 fold change” value was -0.0641.

Take RRIRWRPPRLPRPRPRPAAKPRP: the “shrunken log2 fold change” value was 0.482.

Regarding RRIRHRPPRLPRPRPRPRIQPRP, the “shrunken log2 fold change” value was -0.267.

As for RRIRYRPPRLPRPRPRPNYFPRP, the “shrunken log2 fold change” value was -1.69. Then RRIRFRPPRLPRPRPRPCRCPRP, with -0.735.

As for RRIRKRPPRLPRPRPRPTQQPRP, the “shrunken log2 fold change” value was determined as 1.35. As for RRIRSRPPRLPRPRPRPMQRPRP, the figure is 0.281; as for RRIRRRPPRLPRPRPRPDCPPRP, 0.4; as for RRIRVRPPRLPRPRPRPHTPPRP, -0.271. As for RRIRIRPPRLPRPRPRPSEEPRP, the figure is -0.188. As for RRIRERPPRLPRPRPRPHMWPRP, the figure is -0.0491.

For RRIRGRPPRLPRPRPRPKACPRP, the “shrunken log2 fold change” value turned out to be 0.145. As for RRIRKRPPRLPRPRPRPGKRPRP, the figure is 0.285; as for RRIRRRPPRLPRPRPRPKDRPRP, 0.09; as for RRIRTRPPRLPRPRPRPWKPPRP, 0.0143. Then RRIRCRPPRLPRPRPRPQPTPRP, with 0.319; and RRIRKRPPRLPRPRPRPARIPRP, with 0.0491; and RRIRSRPPRLPRPRPRPRAVPRP, with 0.582.

Take RRIRARPPRLPRPRPRPAHTPRP: the “shrunken log2 fold change” value amounted to 0.544. As for RRIRGRPPRLPRPRPRPRLQPRP, the “shrunken log2 fold change” value was found to be 0.759. For the sequence RRIRDRPPRLPRPRPRPPMAPRP, the “shrunken log2 fold change” value is -0.0543. Then RRIRMRPPRLPRPRPRPQDMPRP, with -0.0638; and RRIRNRPPRLPRPRPRPIVWPRP, with 0.0313; and RRIRHRPPRLPRPRPRPHTFPRP, with -0.386. On to RRIRWRPPRLPRPRPRPSCYPRP, for which the “shrunken log2 fold change” value is -0.122. In the case of RRIRHRPPRLPRPRPRPQRFPRP, the “shrunken log2 fold change” value was -0.0098.

In the case of RRIRVRPPRLPRPRPRPSERPRP, the “shrunken log2 fold change” value is -0.0442. As for RRIRCRPPRLPRPRPRPLEQPRP, the figure is 0.0367; as for RRIRTRPPRLPRPRPRPEDRPRP, 0.0062; as for RRIRKRPPRLPRPRPRPPWPPRP, 0.827. As for RRIRYRPPRLPRPRPRPIVHPRP, the “shrunken log2 fold change” value is -2.04. As for RRIRWRPPRLPRPRPRPPARPRP, the “shrunken log2 fold change” value was found to be 0.726.

Regarding RRIRCRPPRLPRPRPRPQFCPRP, the “shrunken log2 fold change” value is -0.187.

Regarding RRIRTRPPRLPRPRPRPDYEPRP, the “shrunken log2 fold change” value is -0.023.

In the case of RRIRSRPPRLPRPRPRPSLNPRP, the “shrunken log2 fold change” value was -0.142. Then RRIRRRPPRLPRPRPRPFNIPRP, with -0.491; and RRIRDRPPRLPRPRPRPGAFPRP, with 0.357. In the case of RRIRFRPPRLPRPRPRPRYHPRP, the “shrunken log2 fold change” value is -0.295. With RRIRTRPPRLPRPRPRPNHRPRP, the “shrunken log2 fold change” value was -0.209. Take RRIRPRPPRLPRPRPRPWCIPRP: the “shrunken log2 fold change” value was -0.519.

On to RRIRRRPPRLPRPRPRPIMKPRP, for which the “shrunken log2 fold change” value was -0.0396. Regarding RRIRPRPPRLPRPRPRPYLIPRP, the “shrunken log2 fold change” value was -0.445.

In the case of RRIRFRPPRLPRPRPRPHLPPRP, the “shrunken log2 fold change” value was -0.0118. Then RRIRLRPPRLPRPRPRPQPNPRP, with -0.00696; and RRIRSRPPRLPRPRPRPHGRPRP, with -0.0222; and RRIRPRPPRLPRPRPRPCQPPRP, with -0.0774. In the case of RRIRKRPPRLPRPRPRPNIDPRP, the “shrunken log2 fold change” value was -0.0981.

Turning to RRIRDRPPRLPRPRPRPQMTPRP, the “shrunken log2 fold change” value was determined as 0.103. As for RRIRQRPPRLPRPRPRPTSWPRP, the figure is -0.00172; as for RRIRRRPPRLPRPRPRPRFPPRP, 0.676; as for RRIRPRPPRLPRPRPRPHRGPRP, -0.0385. On to RRIRDRPPRLPRPRPRPYKTPRP, for which the “shrunken log2 fold change” value is -0.0411.

As to RRIRARPPRLPRPRPRPPDIPRP, the “shrunken log2 fold change” value turned out to be 0.289.

As for RRIRWRPPRLPRPRPRPGNVPRP, the “shrunken log2 fold change” value is -0.127. As for RRIRERPPRLPRPRPRPTMHPRP, the figure is -0.229; as for RRIRGRPPRLPRPRPRPCFLPRP, 0.0171. As for RRIRPRPPRLPRPRPRPIPTPRP, the figure is 0.00223. Then RRIRVRPPRLPRPRPRPTHWPRP, with 0.509; and RRIRARPPRLPRPRPRPNHVPRP, with -0.31; and RRIRYRPPRLPRPRPRPDTCPRP, with -0.233. Take RRIRRRPPRLPRPRPRPWYIPRP: the “shrunken log2 fold change” value is -0.595. Then RRIRKRPPRLPRPRPRPKLWPRP, with 0.656. Turning to RRIRSRPPRLPRPRPRPWLFPRP, the “shrunken log2 fold change” value was -0.183. Then RRIRPRPPRLPRPRPRPETEPRP, with 0.344. As for RRIRCRPPRLPRPRPRPREYPRP, the figure is -0.22. For RRIRIRPPRLPRPRPRPVCHPRP, the “shrunken log2 fold change” value was -0.179.

Consider RRIRIRPPRLPRPRPRPVISPRP, for which the “shrunken log2 fold change” value was -0.43.

For the sequence RRIRMRPPRLPRPRPRPTKMPRP, the “shrunken log2 fold change” value is 0.745. As for RRIRGRPPRLPRPRPRPTWHPRP, the figure is 0.468; as for RRIRIRPPRLPRPRPRPYWNPRP, -0.694; as for RRIRTRPPRLPRPRPRPYNQPRP, -0.33. Regarding RRIRFRPPRLPRPRPRPEQHPRP, the “shrunken log2 fold change” value was 1.53. Then RRIRIRPPRLPRPRPRPSIGPRP, with -0.333. Then RRIRRRPPRLPRPRPRPVFYPRP, with -0.0199; and RRIRTRPPRLPRPRPRPYPKPRP, with -0.0976.

The values above are taken from the supplement of paper PMC9112550, “Optimization of the antimicrobial peptide Bac7 by deep mutational scanning” (BMC Biology, 2022).
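Note: peptides expressed intracellularly from a pBAD plasmid library in pooled LB shake-flask culture, induced with 0.3% L-arabinose, DNA abundance read by NGS, three biological replicates, DESeq2 with apeglm shrinkage.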
